The supplement of paper PMC12042874
± gives the uncertainty stated by the source.

Assay: amyloid nucleation score (Sup35N fusion, yeast selection) (log enrichment); library NNK1; higher = more nucleation; inactive = no reads after selection
Procedure, shortened: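 Peptides of 20 random codons, each fused to Sup35N, were expressed in psi-negative yeast. Cells were induced with 100 μM copper sulfate for 24 hours and grown 7 days at 30°C on medium lacking adenine and uracil, and plasmid inserts before and after selection were Illumina-sequenced. Nucleation scores are DiMSum log enrichments of output over input reads, centred on the mode score of non-aggregating sequences, and sequences under 100 input reads were excluded.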
For FIPQFYSVAMKLGCVRFVVL, the amyloid nucleation score was 0.577 ± 0.56.
FIRFLNTVGSWSLWMPYMVF gave an amyloid nucleation score of 0.851 ± 0.42.
Substance FIRLLGSMV has an amyloid nucleation score of 0.622 ± 0.84.
For FIRVMRA, the amyloid nucleation score was “inactive”.
Work on FISVMTLRLEKFEVVGDMKL yielded an amyloid nucleation score of -0.43 ± 0.39.
With FIVERDTHQGMHFGLMLING the amyloid nucleation score was 0.286 ± 0.62.
FIYMQSVCAWFISWNSFR showed an amyloid nucleation score of 0.355 ± 0.86.
FIYVDSGDKNGYCACDKFLP gave an amyloid nucleation score of 6.059 ± 0.052.
Substance FKDLNIWDWKNGAHITNCLG has an amyloid nucleation score of 1.05 ± 0.63.
With FKEFTAIDKSRSVLLNLEPD the amyloid nucleation score was “inactive”.
With FKKSNLPSIVWRCDAWLGSS the amyloid nucleation score was 0.334 ± 0.3.
FKLGFGVYIVVGKEGFVVSR showed an amyloid nucleation score of 2.02 ± 0.23.
FKRFLSLVCV gave an amyloid nucleation score of 0.1 ± 0.53.
With FKSVFVRTIHATYIVSWAN the amyloid nucleation score was -0.413 ± 1.5.
For FKYYQAGSYNRKRMTQDGGS, the amyloid nucleation score was 0.175 ± 0.46.
Substance FLCMPL has an amyloid nucleation score of 0.266 ± 0.41.
FLICVTSNWLGTYCRVERFW gave an amyloid nucleation score of 0.023 ± 0.35.
With FLKDIYVYVTLVCHLRSLAS the amyloid nucleation score was -0.589 ± 0.49.
Work on FLKGYHCVNDDSGNFFIVYI yielded an amyloid nucleation score of 2.02 ± 0.11.
With FLLGSYILWECNHGSHHMSG the amyloid nucleation score was 0.06 ± 0.23.
Substance FLLREQQGLTEVMKEV has an amyloid nucleation score of 0.481 ± 0.52.
With FLNMQYRGLQ the amyloid nucleation score was 3.42 ± 0.11.
For FLSGYGSCLELANVIRWLEN, the amyloid nucleation score was 1.19 ± 0.69.
In the case of FLSRGSVWVVGSTFECHYEW, the amyloid nucleation score is reported as 0.205 ± 0.56.
Work on FLVLND yielded an amyloid nucleation score of 0.273 ± 0.2.
For FLWDNAVSKVKFITFVWPHI, the amyloid nucleation score was 0.86 ± 0.32.
For FLYVNLL, the amyloid nucleation score was 0.091 ± 0.19.
FMTFVYTGTSFSR showed an amyloid nucleation score of 0.523 ± 0.71.
FNAVATKSVNRGRSLLDVTQ showed an amyloid nucleation score of 0.62 ± 0.8.
For FNDLYLGAYSRREDTNYVRL, the amyloid nucleation score was 0.198 ± 0.56.
FNFMVNRLMVKVGLVSWRQY showed an amyloid nucleation score of 0.029 ± 1.6.
In the case of FNLNNGIR, the amyloid nucleation score is reported as “inactive”.
FNSYKGLIVQKYPSMTLN showed an amyloid nucleation score of 0.302 ± 1.
For FNTALSDPYVTMWHYYTNYC, the amyloid nucleation score was -0.8 ± 0.63.
Substance FNYNLCMFMHSVELFLIKIE has an amyloid nucleation score of 8.162 ± 0.075.
In the case of FPASNAQNLRLFQVGYGRPQ, the amyloid nucleation score is reported as 0.185 ± 1.1.
In the case of FPEWNSWYQRRVMAKGAHGY, the amyloid nucleation score is reported as 0.58 ± 1.1.
With FPNLHLTELCLGRIYVRACY the amyloid nucleation score was “inactive”.
With FPNVDNNV the amyloid nucleation score was “inactive”.
With FPQLGLG the amyloid nucleation score was “inactive”.
For FPSLNNVNPSGFCSISSFRG, the amyloid nucleation score was “inactive”.
In the case of FPYRGLLFTRLIPAAVGKGA, the amyloid nucleation score is reported as 0.171 ± 0.74.
FQGRLVFVDCDIRLVALKGS gave an amyloid nucleation score of 3.88 ± 0.067.
FQGVGDIGSVLHAMFLCYGS showed an amyloid nucleation score of 2.94 ± 0.15.
Work on FQKYGQCSHYRVVDRKLQCS yielded an amyloid nucleation score of 0.314 ± 1.4.
Substance FQLGAHKLRAWLDRGYPEFA has an amyloid nucleation score of -0.202 ± 0.64.
With FQRGKLTASLSMVHSSRVCF the amyloid nucleation score was -1.6 ± 2.4.
For FQSARR, the amyloid nucleation score was 0.575 ± 0.36.
Substance FQVLYNGVMCHYSCWCVWKV has an amyloid nucleation score of 1.05 ± 0.19.
FRCLTVYCWF gave an amyloid nucleation score of 7.894 ± 0.044.
In the case of FRDFMMTFMFPRDMSSGAVG, the amyloid nucleation score is reported as 0.067 ± 0.4.
For FRFAMRYFRGIYELRNENRR, the amyloid nucleation score was “inactive”.
FRGRDSCGHH showed an amyloid nucleation score of 0.101 ± 0.44.
With FRGWV the amyloid nucleation score was 1.62 ± 0.12.
FRGYHSSMSGNGDDNEKFGG showed an amyloid nucleation score of 0.24 ± 0.71.
For FRHGKVWSLLKLGADAGREE, the amyloid nucleation score was 0.098 ± 0.91.
In the case of FRHVQSMRACFLKSKYGATI, the amyloid nucleation score is reported as 0.195 ± 0.84.
FRICYCWFGGEKDHRNFQIG showed an amyloid nucleation score of 3.86 ± 0.06.
Work on FRKFSCCVGSLVSSSYVLDS yielded an amyloid nucleation score of 6.16 ± 0.064.
For FRKKCGVNEIYLWGDSG, the amyloid nucleation score was “inactive”.
With FRLARGVVWCPGGISC the amyloid nucleation score was -0.536 ± 0.42.
Substance FRLMVPGVCRRLANGLRMIW has an amyloid nucleation score of -0.3 ± 0.35.
Work on FRSLSSGIFGACWWYMFYSM yielded an amyloid nucleation score of 0.229 ± 0.6.
FRSNGQNLVTAISSMDVRAN showed an amyloid nucleation score of -2.14 ± 2.7.
With FRVFIYPMWRSMWCFGYKEG the amyloid nucleation score was “inactive”.
Work on FRVWSAFPYVGKSSPFGHSS yielded an amyloid nucleation score of -0.89 ± 0.53.
In the case of FRWPSLLGNLLKLGVDTAD, the amyloid nucleation score is reported as -0.126 ± 0.38.
FSAKYMQGTQWSRLVHMLRT gave an amyloid nucleation score of 0.112 ± 0.48.
In the case of FSARTTVENAEDRSFDNQLV, the amyloid nucleation score is reported as 0.312 ± 0.4.
